EC50 and IC50 data for 26 molecules are collected here from patent US20240174750A1 (VIRTUOSO BINCO, published 2024).

Changes are numbered by the printed parent chain.

Sequences and labels used below:
B1: R.1B11 (antibody, human IgG1, kappa, V domains shown)
VH: QSLEESGGRLVTPGTPLTLTCTASGFSLNSYHMSWVRQAPGEGLEWIGIIYADTGNADYASWTKGRFTISKASTTVELRITSPTSEDTATYFCARGPTNTYPTYFALWGPGTLVTVSS
VL: AFELTQTPSSVEAAVGGTVTIKCQASQSITTYLAWYQQKPGQPPKLLIYGASNLESGVPSRFKGSRSGTEYTLTISDLESADAATYYCQSYYAISKSAFGGGTEVVVKR
notes: Chimeric: rabbit variable domains, human IgG1 and human kappa constant regions
B2: R.19H7 (antibody, human IgG1, kappa, V domains shown)
VH: QEQLKESGGGLVTPGGTLTLTCTASGFTISSYHMCWVRQAPGKGLEWIGCIYPNNDFTWYATWAKGRFTISKTSSTTVDLRMTTPTTEETATYFCARASGNAYNLLDLWGQGTLVTVSS
VL: AIVMTQTPASVSVAVGGSVTINCQSSESVYRDNCLGWFQQKPGQPPKLLIYRASTLASGVPSRFKGSGSGTQFTLTISDVVSDDAATYYCAGYKSTITDGTAFGGGTEVVVKR
notes: as for B1
B3: R.20H1 (antibody, human IgG1, kappa, V domains shown)
VH: QEQLVESGGGLVKPGASLTLTCKASGFSFSSGYYMCWVRQAPGKGLEWIGCIYVRSDSTYYASWAKGRFTISKASSTTVTLQMTSLTAADTATYFCARGVTGDSYRFNFWGPGTLVTVSS
VL: DVVMTQTPASVEAAVGGTVTIKCQASQSISNELSWYQQKSGQPPKLLIYRASTLESGVPSRFKGSGSGTEFTLTISDLESADAATYYCQSTYYGTSYGNAFGGGTEVVVKR
notes: as for B1
B4: M.20B10E9 (antibody, human IgG1, kappa, V domains shown)
VH: EVQLQQSGAELVRPGASVKLSCTASGFNIEDTYMHWVKQRPEQGLEWIGRIDPANGKTKSDPKFQGKATITTDTSSNTAYLQLSSLTSEDTAVYYCAKGDGYYVGGLDYWGQGTTLTVSS
VL: DIQMNQSPSSLSASLGDTITITCHASQNIHVWLSWYQQKPGNIPKLLIYKASNLHTGVPSRFSGSGSGTGFTLTISSLQPEDIATYYCQQGQSYPYTFGGGTKLEIKR
notes: Chimeric: mouse variable domains, human IgG1 and human kappa constant regions
B5: M.30A5C6 (antibody, human IgG1, kappa, V domains shown)
VH: B4 VH with R13K, K57N, S60Y, I70V, T72A, Y95C, K98R, Y102H, D108N, T115S
VL: B4 VL with H30N, S93N
notes: as for B4
B6: hu.18B9.3i (antibody, V domains shown)
VH: EVQLVESGGGLVQPGGSLRLSCAASGFSFNSGYMSWVRQAPGKGLEWIASIYAGSSGKTYYADWAKGRFTISKTSSKTTVYLQMNSLRAEDTAVYYCARDSGGTYYTDYLYLWGQGTLVTVSS
VL: DIQMTQSPSSLSASVGDRVTITCRASEGISSYLSWYQQKPGKAPKLLIYKASTLTSGVPSRFSGSGSGTDFTLTISSLQPEDFATYYCQSTYGSSGSSGYGAAFGGGTKVEIK
notes: Humanised 18B9, parent of the alanine scan; also called hu.18B9.3i antibody
B7: hu.18B9.3i LC_S90A (antibody, name in Kabat numbering, V domains shown)
VH: B6 VH
VL: B6 VL with S90A
notes: Alanine scan variant of hu.18B9.3i; Kabat numbering
B8: hu.18B9.3i LC_S95b_A (antibody, V domains shown)
VH: B6 VH
VL: B6 VL with S97A
notes: as for B7
B9: hu.18B9.3i LC_S95c_A (antibody, V domains shown)
VH: B6 VH
VL: B6 VL with S98A
notes: as for B7
B10: hu.18B9.3i HC_L102A (antibody, name in Kabat numbering, V domains shown)
VH: B6 VH with L112A
VL: B6 VL
notes: as for B7
B11: hu.18B9.3i LC_Y92A (antibody, name in Kabat numbering, V domains shown)
VH: B6 VH
VL: B6 VL with Y92A
notes: as for B7
B12: hu.18B9.3i HC_Y100a_A (antibody, V domains shown)
VH: B6 VH with Y106A
VL: B6 VL
notes: as for B7
B13: hu.18B9.3i HC_S96A (antibody, name in Kabat numbering, V domains shown)
VH: B6 VH with S101A
VL: B6 VL
notes: as for B7
B14: hu.18B9.3i LC_S94A (antibody, name in Kabat numbering, V domains shown)
VH: B6 VH
VL: B6 VL with S94A
notes: as for B7
B15: hu.18B9.3i HC_T99A (antibody, name in Kabat numbering, V domains shown)
VH: B6 VH with T104A
VL: B6 VL
notes: as for B7
B16: hu.18B9.3i LC_G95d_A (antibody, V domains shown)
VH: B6 VH
VL: B6 VL with G99A
notes: as for B7
B17: hu.18B9.3i LC_Q89A (antibody, name in Kabat numbering, V domains shown)
VH: B6 VH
VL: B6 VL with Q89A
notes: as for B7
B18: hu.18B9.3i HC_Y100A (antibody, name in Kabat numbering, V domains shown)
VH: B6 VH with Y105A
VL: B6 VL
notes: as for B7
B19: hu.18B9.3i LC_G95f_A (antibody, V domains shown)
VH: B6 VH
VL: B6 VL with G101A
notes: as for B7
B20: hu.18B9.3i LC_Y95e_A (antibody, V domains shown)
VH: B6 VH
VL: B6 VL with Y100A
notes: as for B7
B21: hu.18B9.3i LC_G93A (antibody, name in Kabat numbering, V domains shown)
VH: B6 VH
VL: B6 VL with G93A
notes: as for B7
B22: hu.18B9.3i LC_T91A (antibody, name in Kabat numbering, V domains shown)
VH: B6 VH
VL: B6 VL with T91A
notes: as for B7
B23: hu.18B9.3i HC_L100e_A (antibody, V domains shown)
VH: B6 VH with L110A
VL: B6 VL
notes: as for B7
B24: hu.18B9.3i LC_G95a_A (antibody, V domains shown)
VH: B6 VH
VL: B6 VL with G96A
notes: as for B7
B25: hu.18B9.3i HC_T100b_A (antibody, V domains shown)
VH: B6 VH with T107A
VL: B6 VL
notes: as for B7
B26: hu.18B9.3i LC_S95A (antibody, name in Kabat numbering, V domains shown)
VH: B6 VH
VL: B6 VL with S95A
notes: as for B7

In one test the target is T1, CD47 on the surface of CD47+ cells (human, UniProt Q08722 19-323).
T1 construct: whole, on cells; also called CD47+ cell lines; CD47 on Raji cells, HCT-15 cells, human red blood cells (RBCs), human platelets
The test is described as follows: flow cytometry on CD47+ cell lines; EC50 as grade, legend the 7th table, row 26. In general terms: In flow cytometry, cells or beads pass a laser one at a time.
Protocol: Antibody binding to CD47+ cell lines was quantified by flow cytometry. Harvested cells were centrifuged at 2000 rpm for 5 min, resuspended in 10-15 mL ice-cold culture medium, and then counted. Cells were resuspended in blocking buffer (PBS plus 2% FBS) at a concentration of 3×10⁶ cells/mL. 100 μL of the cell suspension was dispensed into each well of a 96-well plate. Purified antibodies were diluted to the desired concentrations with blocking buffer and 100 μL of diluted antibodies were added to the well and incubated for 1 hour at 4° C. The cells were then washed 3 times with PBS plus 2% FBS. […] The cells were then washed 3 times with 200 μL PBS by centrifuging at 2000 rpm for 5 min. After the last wash, the cells were resuspended in 300 μL cold PBS and analyzed on a FACSVerse™ (BD Biosciences) flow cytometer.
Take B1: the EC50 (usually the concentration at which the effect is half-maximal) fell in the range of 100 to 500 pM.
Take B2: the EC50 is 100 to 500 pM.
The same measure, in the same setting: in the case of B3 it was 100 to 500 pM; in that of B4, 100 to 500 pM; in that of B5, 100 to 500 pM.

A further test addresses T2, extracellular domain (ECD) of human CD47 (19aa-139aa) with C-terminal 6xHis tag (human, UniProt Q08722 19-139).
T2 construct: also called recombinant CD47; recombinant human CD47
Kind of test: ELISA, coated recombinant CD47; EC50 as grade, legend the 6th table, row 26.
Protocol: A 96-well plate was coated overnight at 4° C. with 1 μg/ml recombinant CD47. After washing 3 times, the plate was blocked with 300 μL 1% BSA in PBST at 37° C. for 1 hour. Serially diluted antibodies were added and incubated at 37° C. for 1 hour. The plate was then washed 4 times with PBST and incubated with 1:5000 diluted 2nd antibody (Sigma, Cat #A0293) at 37° C. for 1 hour.
Take B1: the 50% effective concentration (EC50) was in the range of 10 to 100 pM.
Same read-out and setting: the figure for B2 is 100 to 500 pM; for B3 it is 100 to 500 pM; for B4 it is 10 to 100 pM.
Turning to B5, the EC50 is 10 to 100 pM.

The target of a further test is T1, CD47 on the surface of CD47+ cells. Kind of test: flow cytometry, competition with SIRPA-mIgG2a on CD47+ tumor cells; IC50 as grade, legend the 8th table, row 26.
Protocol: Tumor cells were harvested, centrifuged, and then resuspended in FACS buffer (PBS plus 2% FBS) at a concentration of 2×10⁶ cells/mL. 100 μL of the cell suspension was dispensed into each well of a 96-well plate. The plate was centrifuged for 5 min and 300×g, and the supernatants were discarded. […] After washing twice with FACS buffer, the plates were resuspended with 300 μL FACS buffer and analyzed by flow cytometry.
As to B1, the half-maximal inhibitory concentration (IC50) (as a rule, the concentration that gives 50% inhibition) lay in the range of 100 to 1000 pM.
The same measure, in the same setting: the figure for B2 is 1000 to 5000 pM.
For B3, the IC50 was 100 to 1000 pM.
Still for that read-out and setting: in the case of B4 it was 100 to 1000 pM; in that of B5, 100 to 1000 pM.

In the next test the target is T2, extracellular domain (ECD) of human …. The test is described as follows: ELISA, recombinant human CD47; EC50 as grade, legend the 11th table, row 38. On the technique in general: An ELISA detects its analyte on a solid surface through an enzyme-linked reagent.
In the case of B6, the 50% effective concentration (EC50) is 10 to 500 pM.
Still for that read-out and setting: in the case of B7 it was 10 to 500 pM; in that of B8, 10 to 500 pM; in that of B9, 10 to 500 pM.
Same read-out and setting: the figure for B10 is 10 to 500 pM; for B11 it is 10 to 500 pM.
With B12, the EC50 fell in the range of 10 to 500 pM.
On the same count and under the same terms, in the case of B13 it was 500 to 5000 pM; in that of B14, 10 to 500 pM.
Still for that read-out and setting: in the case of B15 it was 10 to 500 pM; in that of B16, 10 to 500 pM; in that of B17, 500 to 5000 pM.
The same measure, in the same setting: the figure for B18 is 10 to 500 pM; for B19 it is 10 to 500 pM; for B20 it is 10 to 500 pM.
For the molecule B21, the 50% effective concentration (EC50) is 10 to 500 pM.
Still for that read-out and setting: in the case of B22 it was 10 to 500 pM; in that of B23, greater than 5000 pM.
On the same count and under the same terms, in the case of B24 it was 10 to 500 pM.
The same measure, in the same setting: the figure for B25 is 10 to 500 pM; for B26 it is 10 to 500 pM.
